Test results as given in US20060286609A1 (BIOCHECK, published 2006).
Numbering of substitutions follows the chain as printed.

Assays:
[1] = target: T1, Mouse Id1: Histidine (mouse, UniProt P20067-2 1-148); assay: ELISA, coated antigen, Ab 0.250 ug/ml
T1 construct: E. coli fusion protein (vector pGW07); also called m-Id1-His; not shown: His-tag
T1 sequence: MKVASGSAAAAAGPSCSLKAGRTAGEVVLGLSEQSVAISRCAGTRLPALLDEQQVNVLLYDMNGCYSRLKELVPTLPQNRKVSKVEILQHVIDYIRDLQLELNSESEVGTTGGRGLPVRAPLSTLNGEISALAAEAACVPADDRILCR

[2] = target: T2, Human Id3: Histidine (human, UniProt Q02535 1-119, limits assumed); assay: ELISA, coated antigen, Ab 0.250 ug/ml
T2 construct: E. coli fusion protein (vector pGW07); also called h-Id3: His; not shown: His-tag
T2 sequence (looked up): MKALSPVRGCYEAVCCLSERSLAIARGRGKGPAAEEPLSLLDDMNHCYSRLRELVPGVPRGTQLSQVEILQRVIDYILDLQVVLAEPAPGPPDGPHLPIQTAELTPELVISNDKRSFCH

[3] = target: T3, Human Id2: Histidine (human, UniProt Q02363 1-134, limits assumed); assay: ELISA, coated antigen, Ab 0.250 ug/ml
T3 construct: E. coli fusion protein (vector pGW07); also called h-Id2: His; not shown: His-tag
T3 sequence (looked up): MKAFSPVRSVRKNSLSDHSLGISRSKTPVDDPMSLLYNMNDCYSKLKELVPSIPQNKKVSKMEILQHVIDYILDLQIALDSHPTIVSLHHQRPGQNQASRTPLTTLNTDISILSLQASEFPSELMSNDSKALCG

[4] = target: T4, Mouse Id2: Histidine (mouse, UniProt P41136 1-134, limits assumed); assay: ELISA, coated antigen, Ab 0.250 ug/ml
T4 construct: E. coli fusion protein (vector pGW07); also called m-Id2: His; not shown: His-tag
T4 sequence (looked up): T3 sequence (looked up) with S60T, A131V

[5] = target: T5, Mouse Id4: Histidine (mouse, UniProt P41139 1-161, limits assumed); assay: ELISA, coated antigen, Ab 0.250 ug/ml
T5 construct: E. coli fusion protein (vector pGW07); also called m-Id4: His; not shown: His-tag
T5 sequence (looked up): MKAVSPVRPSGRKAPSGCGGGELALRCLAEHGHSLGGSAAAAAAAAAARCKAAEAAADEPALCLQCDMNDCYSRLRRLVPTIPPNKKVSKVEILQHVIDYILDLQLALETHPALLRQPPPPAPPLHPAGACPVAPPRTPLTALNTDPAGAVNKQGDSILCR

[6] = target: T6, Mouse Id3: Histidine (mouse, UniProt P41133 1-119, limits assumed); assay: ELISA, coated antigen, Ab 0.250 ug/ml
T6 construct: E. coli fusion protein (vector pGW07); also called m-Id3: His; not shown: His-tag
T6 sequence (looked up): T2 sequence (looked up) with G31S, A33S, A34T, N112K

[7] = target: T7, Human Id4: Histidine (human, UniProt P47928 1-161, limits assumed); assay: ELISA, coated antigen, Ab 0.250 ug/ml
T7 construct: E. coli fusion protein (vector pGW07); also called h-Id4: His; not shown: His-tag
T7 sequence (looked up): T5 sequence (looked up) with L125H, A130T, V133A

[8] = target: T1, Mouse Id1: Histidine; assay: ELISA, coated antigen, Ab 0.500 ug/ml
[9] = target: T3, Human Id2: Histidine; assay: ELISA, coated antigen, Ab 0.500 ug/ml
[10] = target: T4, Mouse Id2: Histidine; assay: ELISA, coated antigen, Ab 0.500 ug/ml
[11] = target: T5, Mouse Id4: Histidine; assay: ELISA, coated antigen, Ab 0.500 ug/ml
[12] = target: T7, Human Id4: Histidine; assay: ELISA, coated antigen, Ab 0.500 ug/ml
[13] = target: T1, Mouse Id1: Histidine; assay: ELISA, coated antigen, Ab 0.000 ug/ml (blank, diluent only)
[14] = target: T2, Human Id3: Histidine; assay: as above
[15] = target: T3, Human Id2: Histidine; assay: as above
[16] = target: T6, Mouse Id3: Histidine; assay: as above
[17] = target: T1, Mouse Id1: Histidine; assay: ELISA, coated antigen, Ab 0.100 ug/ml
[18] = target: T2, Human Id3: Histidine; assay: ELISA, coated antigen, Ab 0.100 ug/ml
[19] = target: T3, Human Id2: Histidine; assay: ELISA, coated antigen, Ab 0.100 ug/ml
[20] = target: T4, Mouse Id2: Histidine; assay: ELISA, coated antigen, Ab 0.100 ug/ml
[21] = target: T5, Mouse Id4: Histidine; assay: ELISA, coated antigen, Ab 0.100 ug/ml
[22] = target: T6, Mouse Id3: Histidine; assay: ELISA, coated antigen, Ab 0.100 ug/ml
[23] = target: T7, Human Id4: Histidine; assay: ELISA, coated antigen, Ab 0.100 ug/ml

Substance | A450 [1] [A450] | A450 [2] [A450] | A450 [3] [A450] | A450 [4] [A450] | A450 [5] [A450] | A450 [6] [A450] | A450 [7] [A450] | A450 [8] [A450] | A450 [9] [A450] | A450 [10] [A450] | A450 [11] [A450] | A450 [12] [A450] | A450 [13] [A450] | A450 [14] [A450] | A450 [15] [A450] | A450 [16] [A450] | A450 [17] [A450] | A450 [18] [A450] | A450 [19] [A450] | A450 [20] [A450] | other results
rabbit monoclonal anti-mouse/human Id1, clone #BCH-1/#195-14 (antibody) | 2.57 | 0.052 | 0.057 | 0.053 | 0.048 | 0.049 | 0.048 | 2.79 | 0.072 | 0.057 | 0.049 | 0.048 | 0.045 | 0.049 | 0.058 | 0.05 | 2.04 | 0.047 | 0.053 | 0.054 | A450 [21]: 0.049 A450; A450 [22]: 0.05 A450; A450 [23]: 0.049 A450
rabbit monoclonal anti-human Id1, clone #BCH-2/#5-3 (antibody) | 0.092 | 0.048 | 0.056 | 0.052 | 0.053 | 0.05 | 0.047 | 0.151 | 0.062 | 0.049 | 0.05 | 0.056 | 0.046 | 0.052 | 0.049 | 0.058 | 0.068 | 0.046 | 0.054 | 0.049 | A450 [21]: 0.049 A450; A450 [22]: 0.05 A450; A450 [23]: 0.047 A450
